# Source: patent US7547676B2, “Antagonist peptides to the C5A chemotactic function of vitamin D binding protein” (The Research Foundation of State University of New York, priority 2004, dated 2009)
# T1: DBP immobilized on a Biacore sensor chip (Homo sapiens, UniProt P02774)
# T1 construct: DBP was purified from human plasma; purchased Biodesign International; host or cells: human plasma
# T1 sequence (P02774 17-474): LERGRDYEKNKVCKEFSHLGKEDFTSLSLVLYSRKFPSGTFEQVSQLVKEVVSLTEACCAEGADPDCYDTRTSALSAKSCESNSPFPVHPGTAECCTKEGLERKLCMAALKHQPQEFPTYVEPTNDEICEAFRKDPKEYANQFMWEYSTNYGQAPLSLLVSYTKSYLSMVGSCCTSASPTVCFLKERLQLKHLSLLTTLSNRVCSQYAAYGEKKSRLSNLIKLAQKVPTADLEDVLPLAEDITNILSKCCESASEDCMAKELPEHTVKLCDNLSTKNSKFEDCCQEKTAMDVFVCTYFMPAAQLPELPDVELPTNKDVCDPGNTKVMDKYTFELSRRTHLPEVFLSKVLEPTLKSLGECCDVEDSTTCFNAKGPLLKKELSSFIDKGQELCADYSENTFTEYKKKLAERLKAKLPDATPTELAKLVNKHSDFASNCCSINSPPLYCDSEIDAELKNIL
# B1: DBP: Purified human DBP obtained from Biodesign International (protein)
# chain: T1 sequence (P02774 17-474)
# Assays:
# [1] = system: differentiated HL-60 cells; assay: Ligand-induced calcium mobilization (Fluo-3 AM) in differentiated HL-60 cells; type: cell-based, Human; details: untreated cells, DBP and C5a added simultaneously
# [2] = system: U937-C5aR cells; assay: C5a-induced intracellular calcium mobilization in U937-C5aR cells; type: cell-based, human; details: FIG. 11A; cells pretreated 30 min at 22° C. with 50 nM DBP
# Method: FIG. 11A and FIG. 11B show the effect of DBP on C5a-induced intracellular calcium mobilization in U937-C5aR cells. U937-C5aR cells (10^7 cells/ml) were resuspended in HBSS-1% BSA containing 2 μM Fluo-3 AM and incubated at 37° C. for 40 minutes. Cells incubated without the dye were used as a control to measure autofluorescence (Fmin). Following the dye uptake, cells were washed twice then suspended at 5×10^6 cells/ml in HBSS containing 1% BSA. For the pretreatment experiments, cells were incubated for 30 min at 22° C. with 50 nM DBP or 0.5 μM DBP peptide 1 (p1). For each measurement, 400 μl of cell suspension was added to a cuvette and stimulated with the indicated concentration of C5a (FIG. 11A) or 0.1 nM C5a (FIG. 11B). Fluorescence was then measured immediately using a Perkin-Elmer LS-5 fluorometer at 505 nm excitation, 526 nm emission for Fluo-3 AM. Fmax was measured by treating labeled cells with 60 μM digitonin. Intracellular free calcium concentrations were calculated using the following formula: (Ca^2+)=Kd (F−Fmin)/(Fmax−F), where Kd=325 nM for Fluo-3 according to manufacturer (Molecular Probes). Data are presented as mean±SEM (n=4-6) of the increase in intracellular calcium concentration.
# U937-C5aR cells (10^7 cells/ml) were resuspended in HBSS-1% BSA containing 2 μM Fluo-3 AM and incubated at 37° C. for 40 minutes. Cells incubated without the dye were used as a control to measure autofluorescence (Fmin). Following the dye uptake, cells were washed twice then suspended at 5×10^6 cells/ml in HBSS containing 1% BSA. Cells were incubated for 30 min at 22° C. with either 50 nM DBP or 0.5 μM DBP peptide. For each measurement, 400 μl of cell suspension was added to a cuvette and stimulated with 0.1 nM purified C5a. Fluorescence was then measured immediately using a Perkin-Elmer LS-5 fluorometer at 505 nm excitation, 526 nm emission for Fluo-3 AM. Fmax was measured by treating labeled cells with 60 μM digitonin. Intracellular free calcium concentrations were calculated using the following formula: (Ca2+)=Kd (F−Fmin)/(Fmax−F), where Kd=325 nM for Fluo-3 according to manufacturer (Molecular Probes)
# [3] = biological target: T1, DBP immobilized on a Biacore sensor chip; assay: Biacore surface plasmon resonance: U937-C5aR cell binding to immobilized DBP
# Method: FIG. 8A and FIG. 8B show immobilization of DBP on a Biacore surface plasmon resonance sensor chip CM5. Purified DBP in HBSS (5 μM) was coupled to the sensor chip. Coupling was detected using 5 μg/ml affinity-purified anti-DBP (FIG. 8A). Different concentrations of U937-C5aR cells in HBSS were injected into the flow cell and allowed to interact with the immobilized DBP (FIG. 8B). Data is expressed as response units of the molecular interaction on the sensor chip.
# FIGS. 9A to 9C show the effect of pretreating U937-C5aR cells with purified DBP or DBP peptides on the binding to DBP immobilized on a Biacore sensor chip. FIG. 9A: 10^6 cells/ml in HBSS were not treated (control), pretreated with 50 nM DBP, 0.5 μM DBP peptide 1 (p1) or DBP peptide 2 (p2). FIG. 9B: DBP peptide 1 immobilized to the Biacore sensor chip. FIG. 9C: DBP peptide 2 immobilized to the Biacore sensor chip. Data is expressed as response units of the molecular interaction on the sensor chip.
# U937-C5aR cells (10^6 cells/ml in HBSS) were pretreated with a 25 μg/ml control IgG, 50 nM purified DBP or 25 μg/ml affinity-purified anti-CD44 and then allowed to interact with DBP immobilized on a Biacore sensor chip. Data is expressed as response units of the molecular interaction on the sensor chip.
# According to the present invention, the interaction of an immobilized ligand, e.g., immobilized DBP, binding to cells can be measure by any established technology available in the art, e.g., by surface plasmon resonance (SPR) or Biacore technology. For example, in the present invention, the binding of U937-C5aR cells to immobilized DBP were examined by Biacore technology, the result of which is used to further determine if the DBP peptides generated in the present invention can alter the interaction U937-C5aR cells and DBP. […] To investigate further the effect of DBP peptides on cell binding, peptide 1 (FIG. 9B) and peptide 2 (FIG. 9C) were immobilized to Biacore sensor chips. […] Finally, the present invention also identifies that CD44 on the cell surface binds DBP and can, in part, mediate the C5a chemotactic cofactor effect of DBP (McVoy and Kew, J. Immunol. 175:4754, 2005). Therefore, using Biacore technology the present invention addresses the effect of blocking CD44 on U937-C5aR binding to immobilized DBP (FIG. 10). In the present invention, U937-C5aR cells were pretreated with either an irrelevant goat IgG (negative control), purified soluble DBP (positive control) or affinity-purified goat anti-CD44. […] These Biacore experiments have provided a powerful quantitative tool to investigate the cell binding region on DBP and examine the effects on DBP peptides on this interaction.
molecule,measurement,setting,value
B1,calcium influx in response to C5a,[1],did not show augmented calcium influx
same,effect on C5a-induced increase in intracellular calcium,[2],significantly augments
same,inhibition of U937-C5aR cell binding to the DBP chip,"[3]; FIG. 9A, 10^6 cells/ml pretreated with 50 nM DBP or 0.5 μM DBP peptide",almost completely blocked
same,inhibition of U937-C5aR binding to immobilized DBP,"[3]; FIG. 10, cells pretreated with 50 nM purified DBP or 25 μg/ml anti-CD44",completely blocks binding
